# B1: Molybdopterin synthase sulfur carrier subunit (Homo sapiens), O96033 (parent)
# chain: MVPLCQVEVLYFAKSAEITGVRSETISVPQEIKALQLWKEIETRHPGLADVRNQIIFAVRQEYVELGDQLLVLQPGDEIAVIPPISGG
# partner: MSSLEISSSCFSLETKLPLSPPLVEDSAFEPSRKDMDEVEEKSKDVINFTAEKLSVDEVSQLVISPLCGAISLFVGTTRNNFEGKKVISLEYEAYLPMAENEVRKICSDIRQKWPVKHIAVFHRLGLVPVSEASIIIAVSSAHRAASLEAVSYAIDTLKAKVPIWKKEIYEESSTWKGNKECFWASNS
# Variants of: B1
# Conditions: with moc2b_human MOCS2, O96007
row,Variant,effect of a mutation on the interaction
1,MVPLCQFEVLYFAKSAEITGVRSETISVPQEIKALQLWKEIETRHPGLADVRNQIIFAVRQEYVELGDQLLVLQPGDEIAVIPPISGG [V7F],disrupting interaction

# Reference: IntAct's records for PubMed 12732628
